Laboratory results reported in patent publication US9618524B2, “Method, composition, isolation and identification of a plaque particle and related biomarker” (Plaxgen Inc., priority 2012, dated 2017).

Columns and labels:
Experiment in all cases: Mass spectroscopy proteomics, semi-quantitative binding affinity of serum proteins (plaqueproteome, Table 2)
Settings in all cases: higher number = stronger affinity
[1] = target: T1, Abeta-42 plaque particles (Homo sapiens, UniProt P05067)
T1 construct: Abeta 1-42
How it was run: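 AD patient serum or plasma (50% in PBS) was incubated with Abeta-42 aggregates (30 μg) for 1 h at 37 °C, then stained with Thioflavin S for 30 min. Labeled particles were FACS-sorted, trypsin/Lys-C digested overnight and analyzed by MS/MS. Sequest searched human UniProt; Scaffold/Protein Prophet validated the identifications.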

[2] = system: High Density cholesterol (Chl Large) plaque particles; parameters: species or system human
How it was run: (§1)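 Atherosclerotic plasma/serum (50% in PBS) + 30 μg cholesterol aggregates, 1 hr 37° C; FACS gates split low- vs high-density particles. Acetone precipitation, urea/ProteaseMAX, acrylamide alkylation, overnight Trypsin/Lys C at 37° C; Sequest search, Scaffold/Protein Prophet validation.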

[3] = system: Low density cholesterol (Chl small) plaque particles; parameters: species or system human
How it was run: as §1

[4] = target: T2, alpha-synuclein plaque particles (Homo sapiens, UniProt P37840)
T2 construct: 140 amino acids polypeptide
How it was run: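 AD-subject plasma or serum (800 μL of 50%) mixed with 30 μg preformed alpha-synuclein aggregates for 1 h at 37 °C; Thioflavin S-positive particles isolated by flow sorting. After reduction, acrylamide alkylation and overnight tryptic digestion, serum proteins identified by MS/MS with Sequest and Scaffold.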

Tau plaque particles = system: Tau plaque particles; parameters: species or system human
How it was run: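 Serum or plasma proteins captured on Thioflavin S-labelled Tau plaque particles (Tau-74, Tau-275 oligomers preformed in PBS at 37° C for 2 h; 1 h co-incubation at 37° C) were isolated by FACS sorting, then tryptically digested and identified by MS/MS (Sequest, human UniProt, strict trypsin).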

B1: Alpha-1-antichymotrypsin (protein)
chain: HPNSPLDEENLTQENQDRGTHVDLGLASANVDFAFSLYKQLVLKAPDKNVIFSPLSISTALAFLSLGAHNTTLTEILKGLKFNLTETSEAEIHQSFQHLLRTLNQSSDELQLSMGNAMFVKEQLSLLDRFTEDAKRLYGSEAFATDFQDSAAAKKLINDYVKNGTRGKITDLIKDLDSQTMMVLVNYIFFKAKWEMPFDPQDTHQSRFYLSKKKWVMVPMMSLHHLTIPYFRDEELSCTVVELKYTGNASALFILPDQDKMEEVEAMLLPETLKRWRDSLEFREIGELYLPKFSISRDYNLNDILLQLGIEEAFTSKADLSGITGARNLAVSQVVHKAVLDVFEEGTEASAATAVKITLLSALVETRTIVRFNRPFLMIIVPTDTQNIFFMSKVTNPKQA
With B1 the “Semi-quantitative analysis of proteins binding to different plaque particles: Abeta-42” value [1] was 11, the “Semi-quantitative analysis of proteins binding to different plaque particles: Chl Large” value [2] was 14 and the “Semi-quantitative analysis of proteins binding to different plaque particles: Chl small” value [3] was 11. The “Semi-quantitative analysis of proteins binding to different plaque particles: Synuclein” value [4] was 20 and the “Semi-quantitative analysis of proteins binding to different plaque particles: Tau” value (Tau plaque particles) was 16.

B2: Isoform 2 of Inter-alpha-trypsin inhibitor heavy chain H4 (protein)
chain: EKNGIDIYSLTVDSRVSSRFAHTVVTSRVVNRANTVQEATFQMELPKKAFITNFSMIIDGMTYPGIIKEKAEAQAQYSAAVAKGKSAGLVKATGRNMEQFQVSVSVAPNAKITFELVYEELLKRRLGVYELLLKVRPQQLVKHLQMDIHIFEPQGISFLETESTFMTNQLVDALTTWQNKTKAHIRFKPTLSQQQKSPEQQETVLDGNLIIRYDVDRAISGGSIQIENGYFVHYFAPEGLTTMPKNVVFVIDKSGSMSGRKIQQTREALIKILDDLSPRDQFNLIVFSTEATQWRPSLVPASAENVNKARSFAAGIQALGGTNINDAMLMAVQLLDSSNQEERLPEGSVSLIILLTDGDPTVGETNPRSIQNNVREAVSGRYSLFCLGFGFDVSYAFLEKLALDNGGLARRIHEDSDSALQLQDFYQEVANPLLTAVTFEYPSNAVEEVTQNNFRLLFKGSEMVVAGKLQDRGPDVLTATVSGKLPTQNITFQTESSVAEQEAEFQSPKYIFHNFMERLWAYLTIQQLLEQTVSASDADQQALRNQALNLSLAYSFVTPLTSMVVTKPDDQEQSQVAEKPMEGESRNRNVHSAGAAGSRMNFRPGVLSSRQLGLPGPPDVPDHAAYHPFRRLAILPASAPPATSNPDPAVSRVMNMKIEETTMTTQTPACPSCSRSRAPAVPAPIQAPSAILPLPGQSVERLCVDPRHRQGPVNLLSDPEQGVEVTGQYEREKAGFSWIEVTFKNPLVWVHASPEHVVVTRNRRSSAYKWKETLFSVMPGLKMTMDKTGLLLLSDPDKVTIGLLFWDGRGEGLRLLLRDTDRFSSHVGGTLGQFYQEVLWGSPAASDDGRRTLRVQGNDHSATRERRLDYQEGPPGVEISCWSVEL
For B2, the “Semi-quantitative analysis of proteins binding to different plaque particles: Abeta-42” value [1] was 2, the “Semi-quantitative analysis of proteins binding to different plaque particles: Chl Large” value [2] was 20 and the “Semi-quantitative analysis of proteins binding to different plaque particles: Chl small” value [3] was 13. For the same molecule, the “Semi-quantitative analysis of proteins binding to different plaque particles: Synuclein” value [4] was 12 and the “Semi-quantitative analysis of proteins binding to different plaque particles: Tau” value (Tau plaque particles) was 15.

B3: Cluster of Kininogen-1 (protein, UniProt P01042 19-644, looked up)
Kininogen-1: QESQSEEIDCNDKDLFKAVDAALKKYNSQNQSNNQFVLYRITEATKTVGSDTFYSFKYEIKEGDCPVQSGKTWQDCEYKDAAKAATGECTATVGKRSSTKFSVATQTCQITPAEGPVVTAQYDCLGCVHPISTQSPDLEPILRHGIQYFNNNTQHSSLFMLNEVKRAQRQVVAGLNFRITYSIVQTNCSKENFLFLTPDCKSLWNGDTGECTDNAYIDIQLRIASFSQNCDIYPGKDFVQPPTKICVGCPRDIPTNSPELEETLTHTITKLNAENNATFYFKIDNVKKARVQVVAGKKYFIDFVARETTCSKESNEELTESCETKKLGQSLDCNAEVYVVPWEKKIYPTVNCQPLGMISLMKRPPGFSPFRSSRIGEIKEETTVSPPHTSMAPAQDEERDSGKEQGHTRRHDWGHEKQRKHNLGHGHKHERDQGHGHQRGHGLGHGHEQQHGLGHGHKFKLDDDLEHQGGHVLDHGHKHKHGHGHGKHKNKGKKNGKHNGWKTEHLASSSEDSTTPSAQTQEKTEGPTPIPSLAKPGVTVTFSDFQDSDLIATMMPPISPAPIQSDDDWIPDIQIDPNGLSFNPISDFPDTTSPKCPGRPWKSVSEINPTTQMKESYYFDLTDGLS
In the case of B3, the “Semi-quantitative analysis of proteins binding to different plaque particles: Abeta-42” value [1] is reported as 0, the “Semi-quantitative analysis of proteins binding to different plaque particles: Chl Large” value [2] is reported as 4 and the “Semi-quantitative analysis of proteins binding to different plaque particles: Chl small” value [3] is reported as 8. For the same molecule, the “Semi-quantitative analysis of proteins binding to different plaque particles: Synuclein” value [4] was 6 and the “Semi-quantitative analysis of proteins binding to different plaque particles: Tau” value (Tau plaque particles) was 1.

B4: Kininogen-1 (protein)
chain: B3 Kininogen-1
B4 was tested, and the “Semi-quantitative analysis of proteins binding to different plaque particles: Abeta-42” value [1] was 0, the “Semi-quantitative analysis of proteins binding to different plaque particles: Chl Large” value [2] was 3 and the “Semi-quantitative analysis of proteins binding to different plaque particles: Chl small” value [3] was 7. For the same molecule, the “Semi-quantitative analysis of proteins binding to different plaque particles: Synuclein” value [4] was 4 and the “Semi-quantitative analysis of proteins binding to different plaque particles: Tau” value (Tau plaque particles) was 1.

B5: Isoform LMW of Kininogen-1 (protein)
chain: QESQSEEIDCNDKDLFKAVDAALKKYNSQNQSNNQFVLYRITEATKTVGSDTFYSFKYEIKEGDCPVQSGKTWQDCEYKDAAKAATGECTATVGKRSSTKFSVATQTCQITPAEGPVVTAQYDCLGCVHPISTQSPDLEPILRHGIQYFNNNTQHSSLFMLNEVKRAQRQVVAGLNFRITYSIVQTNCSKENFLFLTPDCKSLWNGDTGECTDNAYIDIQLRIASFSQNCDIYPGKDFVQPPTKICVGCPRDIPTNSPELEETLTHTITKLNAENNATFYFKIDNVKKARVQVVAGKKYFIDFVARETTCSKESNEELTESCETKKLGQSLDCNAEVYVVPWEKKIYPTVNCQPLGMISLMKRPPGFSPFRSSRIGEIKEETTSHLRSCEYKGRPPKAGAEPASEREVS
In the case of B5, the “Semi-quantitative analysis of proteins binding to different plaque particles: Abeta-42” value [1] is reported as 0, the “Semi-quantitative analysis of proteins binding to different plaque particles: Chl Large” value [2] is reported as 4 and the “Semi-quantitative analysis of proteins binding to different plaque particles: Chl small” value [3] is reported as 8. For the same molecule, the “Semi-quantitative analysis of proteins binding to different plaque particles: Synuclein” value [4] was 6 and the “Semi-quantitative analysis of proteins binding to different plaque particles: Tau” value (Tau plaque particles) was 1.

B6: Apolipoprotein A-IV (protein)
chain: EVSADQVATVMWDYFSQLSNNAKEAVEHLQKSELTQQLNALFQDKLGEVNTYAGDLQKKLVPFATELHERLAKDSEKLKEEIGKELEELRARLLPHANEVSQKIGDNLRELQQRLEPYADQLRTQVSTQAEQLRRQLTPYAQRMERVLRENADSLQASLRPHADELKAKIDQNVEELKGRLTPYADEFKVKIDQTVEELRRSLAPYAQDTQEKLNHQLEGLTFQMKKNAEELKARISASAEELRQRLAPLAEDVRGNLRGNTEGLQKSLAELGGHLDQQVEEFRRRVEPYGENFNKALVQQMEQLRQKLGPHAGDVEGHLSFLEKDLRDKVNSFFSTFKEKESQDKTLSLPELEQQQEQQQEQQQEQVQMLAPLES
In the case of B6, the “Semi-quantitative analysis of proteins binding to different plaque particles: Abeta-42” value [1] is reported as 5, the “Semi-quantitative analysis of proteins binding to different plaque particles: Chl Large” value [2] is reported as 8 and the “Semi-quantitative analysis of proteins binding to different plaque particles: Chl small” value [3] is reported as 9. For the same molecule, the “Semi-quantitative analysis of proteins binding to different plaque particles: Synuclein” value [4] was 7 and the “Semi-quantitative analysis of proteins binding to different plaque particles: Tau” value (Tau plaque particles) was 10.

B7: Inter-alpha-trypsin inhibitor heavy chain H4 (protein)
chain: EKNGIDIYSLTVDSRVSSRFAHTVVTSRVVNRANTVQEATFQMELPKKAFITNFSMIIDGMTYPGIIKEKAEAQAQYSAAVAKGKSAGLVKATGRNMEQFQVSVSVAPNAKITFELVYEELLKRRLGVYELLLKVRPQQLVKHLQMDIHIFEPQGISFLETESTFMTNQLVDALTTWQNKTKAHIRFKPTLSQQQKSPEQQETVLDGNLIIRYDVDRAISGGSIQIENGYFVHYFAPEGLTTMPKNVVFVIDKSGSMSGRKIQQTREALIKILDDLSPRDQFNLIVFSTEATQWRPSLVPASAENVNKARSFAAGIQALGGTNINDAMLMAVQLLDSSNQEERLPEGSVSLIILLTDGDPTVGETNPRSIQNNVREAVSGRYSLFCLGFGFDVSYAFLEKLALDNGGLARRIHEDSDSALQLQDFYQEVANPLLTAVTFEYPSNAVEEVTQNNFRLLFKGSEMVVAGKLQDRGPDVLTATVSGKLPTQNITFQTESSVAEQEAEFQSPKYIFHNFMERLWAYLTIQQLLEQTVSASDADQQALRNQALNLSLAYSFVTPLTSMVVTKPDDQEQSQVAEKPMEGESRNRNVHSGSTFFKYYLQGAKIPKPEASFSPRRGWNRQAGAAGSRMNFRPGVLSSRQLGLPGPPDVPDHAAYHPFRRLAILPASAPPATSNPDPAVSRVMNMKIEETTMTTQTPAPIQAPSAILPLPGQSVERLCVDPRHRQGPVNLLSDPEQGVEVTGQYEREKAGFSWIEVTFKNPLVWVHASPEHVVVTRNRRSSAYKWKETLFSVMPGLKMTMDKTGLLLLSDPDKVTIGLLFWDGRGEGLRLLLRDTDRFSSHVGGTLGQFYQEVLWGSPAASDDGRRTLRVQGNDHSATRERRLDYQEGPPGVEISCWSVEL
In the case of B7, the “Semi-quantitative analysis of proteins binding to different plaque particles: Abeta-42” value [1] is reported as 2, the “Semi-quantitative analysis of proteins binding to different plaque particles: Chl Large” value [2] is reported as 20 and the “Semi-quantitative analysis of proteins binding to different plaque particles: Chl small” value [3] is reported as 13. The “Semi-quantitative analysis of proteins binding to different plaque particles: Synuclein” value [4] was 12 and the “Semi-quantitative analysis of proteins binding to different plaque particles: Tau” value (Tau plaque particles) was 15.
